These results are taken from article PMC2104711.

What is called stoichiometry N is the number of molecules, sites or subunits per partner or assembly.

Holding throughout (settings): remark: other sources report otherwise
For test [1], the target named is T1, human XLF (1–233) with N-terminal His6 tag (XLF410) (human), Q9H9Q4.
T1 chain: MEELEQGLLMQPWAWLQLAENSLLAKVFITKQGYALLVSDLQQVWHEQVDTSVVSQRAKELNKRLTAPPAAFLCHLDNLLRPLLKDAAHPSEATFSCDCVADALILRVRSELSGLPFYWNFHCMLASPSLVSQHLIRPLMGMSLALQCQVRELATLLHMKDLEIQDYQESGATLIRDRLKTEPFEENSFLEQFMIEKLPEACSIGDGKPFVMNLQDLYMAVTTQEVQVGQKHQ
In words: cross-linking.

Test [2] concerns the target T2, SeMet-substituted human XLF (1–233) (SeMet-XLF441, cleaved) (human), Q9H9Q4.
T2 chain: T1 chain
In words: crystal structure.

In test [3] the target is T3, human XLF/Cernunnos (1–233), tag-free (cleaved XLF441) (human), Q9H9Q4.
T3 chain: T1 chain
In words: dynamic light scattering.

B1: human XLF (1–233) with N-terminal His6 tag (XLF410), Q9H9Q4 1-233 (domain or fragment)
chain: T1 chain
In test [1], B1 had a stoichiometry N of 2.

B2: SeMet-substituted human XLF (1–233) (SeMet-XLF441, cleaved), Q9H9Q4 1-233 (domain or fragment)
chain: T1 chain
modifications: here or on the partner: selenomethionine-substituted (SeMet in place of methionine); selenomethionine-substituted (SeMet in place of methionine)
As for B2, in test [2], the stoichiometry N was 2.

B3: human XLF/Cernunnos (1–233), tag-free (cleaved XLF441), Q9H9Q4 1-233 (domain or fragment)
chain: T1 chain
In turn, B3 returned a stoichiometry N in test [3] of 2.
